Results on 1 substance are retold here after PMC11271267.

For the test, the target named is MetCb purified individually (Aminobacter sp. strain NyZ550). Put plainly: not stated; purified MetCb alone in solution; experiment not described.

As to “MetCb purified individually (natural protein)”, the stoichiometry N (commonly a count of units in the complex or per binding partner) stood at 6.
